Data from the supplement of paper PMC9170038.

Test system: MS2 coat protein
Assay: apparent KD of MS2 coat protein; higher = weaker reporter binding
Conditions: Eterna round: R107
Outline: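 Designed RNA switches, transcribed on-chip from Illumina sequencing clusters, were titrated with SNAP-549-labelled MS2 coat protein from 0.7 or 1.5 nM to 3 µM in twofold steps. The solution was 100 mM Tris-HCl pH 7.5, 80 mM KCl, 4 mM MgCl2, with constant ligand or without it. Apparent KD is the median over each design's normalised cluster binding-curve fits.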

[1] = input ligand: theophylline 20 uM
[2] = input ligand: theophylline 2 mM
[3] = input ligand: tryptophan 2.4 mM

Row | Sequence | apparent KD of MS2 coat protein (input ligand: arginine 13.2 mM) | apparent KD of MS2 coat protein (input ligand: none) | apparent KD of MS2 coat protein [1] | apparent KD of MS2 coat protein [2] | apparent KD of MS2 coat protein [3]
1 | CAUGUUAGGGCGGCCGCCACUGUGGCUACGGUACAUGAGGAUCACCCAUGUUUGUGGUUGAUCUACAGGACCGGGCCCUGACACG [Erarusge] | 127 nM | 187 nM | 578 nM | 679 nM | 209 nM
2 | CAUUAAGUAACUGAUACCAGUGUACUGACAUGAGGAUCACCCAUGUUGGGUUUUGUUGUACACCCUUGGCAGCAGAAUCUUAAUG [AstrosExyTheB#3] | 44.7 nM |  | 70.2 nM |  | 62.2 nM
3 | CCCAACAUGAGGAUCACCCAUGUUCCGGGUCGAGGACCGGUACGGCCGCCACUCGGUAUGAUGGGUGUGCAGCGUAUCUGCACCA [theeternabot_sameState_MS2_Trp_A_22] | 30.9 nM |  | 61.1 nM | 68.4 nM | 
4 | CCCACAAGCACGGCCGCCACUAUAUUAAUUACUGUCCUAGAACAUGAGGAUCACCCAUGUUAAUGUAGGACCGGGUGCGGGCCCG [theeternabot_exclusion_MS2_Trp_B_7] | 9.21 nM |  | 11.5 nM | 9.46 nM | 
5 | CCCAGUCAUAACAAAGCAAAUAUACUCGAAGGAGCGUCAUAGUAGGCAGGUAGGUCGCGAGACAUGAGGAUCACCCAUGUAGAGA [zrzmullin] | 20.1 nM | 31.8 nM | 33.2 nM | 39.2 nM | 35.1 nM
6 | CCCAGUCAUAGCAGGGCAAAUAUACUCGAAGGAGCGUCAUAGUAGGCAGGUAGGUCGCGAGACAUGAGGAUCACCCAUGUAGAGA [cccmullin] | 33.6 nM | 52.3 nM | 67 nM | 44.2 nM | 44.8 nM
7 | CCCAGUUAUAUCAAAGGAAUUAUACUCGAAGGAGCGUCAUAGUAGGCAGGUAGGUCGCGAGACAUGAGGAUCACCCAUGUAGAGA [pxpmullin] | 37.6 nM | 51.6 nM | 58.4 nM | 34.5 nM | 30.4 nM
8 | CCGUUUUAUGGCGACAUAGGGCGGACUGAAGGAGCGGUGAAUAAGCCAGGUAGGUCGCAGAGAUCCACAUGAGGAUCACCCAUGU [!0.aD] | 322 nM | 52.6 nM | 62.2 nM | 63.5 nM | 77.5 nM
9 | CCUAACCGAUCGGCCGCCACUGACCGGUACCUCUUCGAAACCCGCCACAUGAGGAUCACCCAUGUCAGGACCGGGAUUGCACAGG [Inxeus] | 14.4 nM | 17.2 nM | 23 nM | 17.8 nM | 38.1 nM
10 | CCUAUCCAGUCGGCCGCCACUGAAAACAGUGGGUGAACAUGAGGAUCACCCAUGUAGGAUUUCCACAGGACCGGGACUGUAUAGG [Ex Tryptophan B 24] | 79.4 nM | 933 nM | 1300 nM | 1230 nM | 223 nM
11 | CGAAUAUAGGCUACGUGUCAUUGAGGCGAUACCAGAUUAUGCCAGAUCCCUUGGCAGCGCCAAACAUGAGGAUCACCCAUGUUCA [theeternabot_exclusion_MS2_Theo_A_38] | 23.5 nM |  | 24.8 nM |  | 21.5 nM
12 | CGAUAUGGGACGGCCGCCACUAUUAUGUAACAAAAUAAACAUGAGGAUCACCCAUGUACAUGGGAUAGGACCGGGUCCUAUAACG [#22 Same State - Tryptophan B] | 29.6 nM |  | 42.5 nM | 46.2 nM | 
13 | CGCAACCAACAUGAGGAUCACCCAUGUGAAGGAGCGCCGAAGAAGGCAGGUAGGUCGCACAUGAAUAAAUCAUGUAAAAGGUUGC [MAT - Exclusion Arginine A - Mod of Eli - D19] | 17.7 nM | 51.4 nM | 64.5 nM | 71.2 nM | 40.9 nM
14 | CGGCCCUCACCUGAGGAUCACCCAGGUGAUACCAGCCUGGAAACAGGCCCUUGGCAGCACCAGGUCAUCAAAGAUGACCAAGCCG [TheoAX 23 #SwitchBubble] | 9.35 nM | 10.5 nM | 15.2 nM | 128 nM | 10.9 nM
15 | CGGGACAUGAGGAUCACCCAUGUACGAUCCCGAGGACCGGUACGGCCGCCACUCGCUAGCGUUGAGUCGCGACUUUCAUAACUAA [theeternabot_sameState_MS2_Trp_A_27] | 36.7 nM |  | 92.2 nM | 83.2 nM | 
16 | CGGGUUAGGGCGGCCGCCACUGUGGCUACGGUACAUGAGGAUCACCCAUGUUUGUGGUUGAUCUACAGGACCGGGCCCUGACACG [Geusrean] | 440 nM | 102 nM | 865 nM | 2560 nM | 203 nM
17 | CGUACAUGAGGAUCACCCAUGUAGAGUGAUACCAGUCUACCUAGUGACCCUUGGCAGCACAUCGAUGGCAUCGGUGAUGCCGUUU [Atveti] | 70.1 nM |  | 116 nM |  | 117 nM
18 | CUACAUUUGUAGAAACCGGUCAACAAUAAUCGAGGACCGGUACGGCCGCCACUCGUAUAAUUUUAUACAUGAGGAUCACCCAUGU [Tryptophan A 3] | 13.7 nM |  | 16.5 nM | 16.5 nM | 
19 | CUAGAUGGAAACGUCUGGACGCACAAGCGACGAGGACCGGUACGGCCGCCACUCGAAGAGUGGUGGACAUGAGGAUCACCCAUGU [Design 4 MOD] | 36.5 nM |  | 87.4 nM | 78 nM | 
